These are literature values, as cited in article PMC6478893.

The data set concerns the target Glu73 (UniProt position 86, GLTFTEKWNTD).

On to “Voltage-dependent anion channel 1 (VDAC1) (Mus musculus (inferred from the title of ref. 51, 'mVDAC1'; the article text says only 'VDAC1'))”, for which the pKa is on record as around 7.4.
